Measurements as given in patent US20090209433.

Molecular target: VDAC from Yeast (voltage dependent anion selective channel), purified (UniProt P04840)

Substance: bovine cytochrome c oxidase holoenzyme (crystal grade)
- KM (µM) at VDAC 50 nM: 28 µM
- KM (µM) at VDAC 100 nM: 44 µM
- KM (µM) at VDAC 200 nM: 59 µM
- VMAX (µM/min) at VDAC 50 nM: 132 µM/min
- VMAX (µM/min) at VDAC 100 nM: 199 µM/min
- VMAX (µM/min) at VDAC 200 nM: 224 µM/min
- VMAX/KM (1/min) at VDAC 50 nM: 4.7 min⁻¹
- VMAX/KM (1/min) at VDAC 100 nM: 4.5 min⁻¹
- VMAX/KM (1/min) at VDAC 200 nM: 3.8 min⁻¹
